pKd: −log10 of the molar value.

Experiment [1] has as its target human IL-27 (single-chain molecule: EBI3 connected by its C-terminus to the N-terminus of IL-27 p28 via a polypeptide linker, amino-terminal peptide tag) (human) (UniProt Q14213). Briefly: cell-based or functional assay.
For experiment [2], the target named is mouse IL-27 (single-chain molecule: EBI3 connected by its C-terminus to the N-terminus of IL-27 p28 via a polypeptide linker, amino-terminal peptide tag) (mouse) (UniProt O35228). As to the kind of experiment: cell-based or functional assay.
For experiment [3] the target is unchanged. Briefly: SPR (BIACORE 3000), receptor captured by anti-mouse Fc antibody on CM5 chip, ligand as analyte, 1:1 model with mass transport.
Experiment [4] deals with human IL-27 (single-chain molecule: EBI3 connected by its C-terminus to the N-terminus of IL-27 p28 via a polypeptide linker, amino-terminal peptide tag) (human) (UniProt Q14213). As to the kind of experiment: SPR (BIACORE 3000), receptor amine-coupled to CM5 chip, ligand as analyte, 1:1 model with mass transport. On the technique in general: Surface plasmon resonance follows binding to a sensor surface in real time, without labels.

The target in experiment [5] is mouse IL-27 (single-chain molecule: EBI3 connected by its C-terminus to the N-terminus of IL-27 p28 via a polypeptide linker, amino-terminal peptide tag) (mouse) (UniProt O35228). The description is as above.

For the substance “IL27RAm(mFc1), mouse IL27RA-Fc fusion polypeptide (extracellular domain of mouse IL27RA and wild type BALB/c mouse gamma2a constant region Fc tag)”, in experiment [1], the IC50 (nM), inhibition of IL-27-induced STAT3 phosphorylation, mouse spleens, huIL-27 at EC90 2 nM was 9.3 nM and the IC50 (nM), inhibition of IL-27-induced STAT3 phosphorylation, total human PBMCs, huIL-27 at EC90 2 nM worked out at 1370 nM. In experiment [2], the IC50 (nM), inhibition of IL-27-induced STAT3 phosphorylation, mouse spleens, muIL-27 at EC90 0.2 nM stood at 0.18 nM; the IC50 (nM), inhibition of IL-27-induced STAT3 phosphorylation, total human PBMCs, muIL-27 at EC90 2 nM was 4.83 nM; the IL-2 concentration (pg/ml), naive mouse CD4 T cells, 48 hr, mIL-27RA 0 ug/ml (zero point, no soluble receptor present) + mouse IL-27 10 ng/ml stood at 1260 pg/mL; the IL-2 concentration (pg/ml), naive mouse CD4 T cells, 48 hr, mIL-27RA 5 ug/ml + mouse IL-27 10 ng/ml stood at 4020 pg/mL. In addition, in experiment [2], the IL-2 concentration (pg/ml), naive mouse CD4 T cells, 48 hr, mIL-27RA 10 ug/ml (second row) + mouse IL-27 10 ng/ml was 4920 pg/mL; the IL-2 concentration (pg/ml), naive mouse CD4 T cells, 48 hr, mIL-27RA 10 ug/ml + mouse IL-27 10 ng/ml amounted to 5220 pg/mL; the IL-2 concentration (pg/ml), naive mouse CD4 T cells, 72 hr, mIL-27RA 0 ug/ml (zero point, no soluble receptor present) + mouse IL-27 10 ng/ml came out at 234 pg/mL; the IL-2 concentration (pg/ml), naive mouse CD4 T cells, 72 hr, mIL-27RA 5 ug/ml + mouse IL-27 10 ng/ml was 5740 pg/mL. In experiment [2], the IL-2 concentration (pg/ml), naive mouse CD4 T cells, 72 hr, mIL-27RA 10 ug/ml (second row) + mouse IL-27 10 ng/ml stood at 12200 pg/mL; the IL-2 concentration (pg/ml), naive mouse CD4 T cells, 72 hr, mIL-27RA 10 ug/ml + mouse IL-27 10 ng/ml was found to be 6700 pg/mL; the block of the ability of mouse IL-27 to inhibit IL-2 production by naive CD4 T cells stood at 50%. Moreover, in experiment [3], the negative logarithm of the Kd (pKd) (as a rule, the negative decadic logarithm of the Kd, by convention in mol/L) is 9.92; the off-rate (koff) (commonly the rate constant with which the complex falls apart) came out at 0.0012 s⁻¹; the kon (commonly the second-order rate constant of association) was 1e+07 M⁻¹ s⁻¹.
In experiment [1], “human IL27RA-Fc5 fusion protein (Fc fusion)” yielded an IC50 (nM), inhibition of IL-27-induced STAT3 phosphorylation, mouse spleens, huIL-27 at EC90 2 nM of 0.32 nM and an IC50 (nM), inhibition of IL-27-induced STAT3 phosphorylation, total human PBMCs, huIL-27 at EC90 2 nM of 0.95 nM. In experiment [2], the IC50 (nM), inhibition of IL-27-induced STAT3 phosphorylation, mouse spleens, muIL-27 at EC90 0.2 nM turned out to be 0.14 nM; the IC50 (nM), inhibition of IL-27-induced STAT3 phosphorylation, total human PBMCs, muIL-27 at EC90 2 nM stood at 2.97 nM; the IL-2 concentration (pg/ml), naive mouse CD4 T cells, 48 hr, hIL-27RA 0 ug/ml (zero point, no soluble receptor present) + mouse IL-27 10 ng/ml was found to be 1780 pg/mL; the IL-2 concentration (pg/ml), naive mouse CD4 T cells, 48 hr, hIL-27RA 5 ug/ml + mouse IL-27 10 ng/ml is 5780 pg/mL. In addition, in experiment [2], the IL-2 concentration (pg/ml), naive mouse CD4 T cells, 48 hr, hIL-27RA 10 ug/ml (second row) + mouse IL-27 10 ng/ml was 5330 pg/mL; the IL-2 concentration (pg/ml), naive mouse CD4 T cells, 48 hr, hIL-27RA 10 ug/ml + mouse IL-27 10 ng/ml stood at 5770 pg/mL; the IL-2 concentration (pg/ml), naive mouse CD4 T cells, 72 hr, hIL-27RA 0 ug/ml (zero point, no soluble receptor present) + mouse IL-27 10 ng/ml was 1260 pg/mL; the IL-2 concentration (pg/ml), naive mouse CD4 T cells, 72 hr, hIL-27RA 5 ug/ml + mouse IL-27 10 ng/ml is 1870 pg/mL. In addition, in experiment [2], the IL-2 concentration (pg/ml), naive mouse CD4 T cells, 72 hr, hIL-27RA 10 ug/ml (second row) + mouse IL-27 10 ng/ml was found to be 17500 pg/mL; the IL-2 concentration (pg/ml), naive mouse CD4 T cells, 72 hr, hIL-27RA 10 ug/ml + mouse IL-27 10 ng/ml was 28600 pg/mL; the block of the ability of mouse IL-27 to inhibit IL-2 production by naive CD4 T cells was found to be 50%. Further, in experiment [4], the negative-log Kd (pKd) is 9.72, the dissociation rate constant (koff) came out at 0.0019 s⁻¹ and the kon is 1e+07 M⁻¹ s⁻¹. In experiment [5], this substance gave a pKd of 9.66, a koff of 0.0018 s⁻¹ and an association rate constant (kon) of 8.1e+06 M⁻¹ s⁻¹.

The record behind these values is patent US20100093076A1, “SOLUBLE IL-27 RECEPTOR” (priority 2006, published 2010).
